Assay results published in patent publication US20100260765A1.

Assays:
[1] = target: soluble KDR Ig4-7 domain (human) (UniProt P35968); assay: ELISA, KDR Ig4-7 coat (1:1 diln.), antibody 0.1 ug/mL
[2] = target: whole KDR-ECD (Cat. # 676490, Calbiochem) (human) (UniProt P35968); assay: ELISA, KDR-ECD coat 5 ug/mL, antibody 0.01 ug/mL
[3] = target: whole KDR-ECD (Cat. # 676490, Calbiochem) (human) (UniProt P35968); assay: ELISA, KDR-ECD coat 5 ug/mL, antibody 0.1 ug/mL
[4] = target: soluble KDR Ig4-7 domain (human) (UniProt P35968); assay: ELISA, KDR Ig4-7 coat (1:1 diln.), antibody 0.01 ug/mL
[5] = target: whole KDR-ECD (Cat. # 676490, Calbiochem) (human) (UniProt P35968); assay: ELISA, KDR-ECD coat 5 ug/mL, antibody 1 ug/mL
[6] = target: soluble KDR Ig4-7 domain (human) (UniProt P35968); assay: ELISA, KDR Ig4-7 coat (1:1 diln.), antibody 1 ug/mL
KDR (human) = KDR (human) (UniProt P35968); assay: cell-based or functional assay
KDR (human), sequence (P35968 20-1356): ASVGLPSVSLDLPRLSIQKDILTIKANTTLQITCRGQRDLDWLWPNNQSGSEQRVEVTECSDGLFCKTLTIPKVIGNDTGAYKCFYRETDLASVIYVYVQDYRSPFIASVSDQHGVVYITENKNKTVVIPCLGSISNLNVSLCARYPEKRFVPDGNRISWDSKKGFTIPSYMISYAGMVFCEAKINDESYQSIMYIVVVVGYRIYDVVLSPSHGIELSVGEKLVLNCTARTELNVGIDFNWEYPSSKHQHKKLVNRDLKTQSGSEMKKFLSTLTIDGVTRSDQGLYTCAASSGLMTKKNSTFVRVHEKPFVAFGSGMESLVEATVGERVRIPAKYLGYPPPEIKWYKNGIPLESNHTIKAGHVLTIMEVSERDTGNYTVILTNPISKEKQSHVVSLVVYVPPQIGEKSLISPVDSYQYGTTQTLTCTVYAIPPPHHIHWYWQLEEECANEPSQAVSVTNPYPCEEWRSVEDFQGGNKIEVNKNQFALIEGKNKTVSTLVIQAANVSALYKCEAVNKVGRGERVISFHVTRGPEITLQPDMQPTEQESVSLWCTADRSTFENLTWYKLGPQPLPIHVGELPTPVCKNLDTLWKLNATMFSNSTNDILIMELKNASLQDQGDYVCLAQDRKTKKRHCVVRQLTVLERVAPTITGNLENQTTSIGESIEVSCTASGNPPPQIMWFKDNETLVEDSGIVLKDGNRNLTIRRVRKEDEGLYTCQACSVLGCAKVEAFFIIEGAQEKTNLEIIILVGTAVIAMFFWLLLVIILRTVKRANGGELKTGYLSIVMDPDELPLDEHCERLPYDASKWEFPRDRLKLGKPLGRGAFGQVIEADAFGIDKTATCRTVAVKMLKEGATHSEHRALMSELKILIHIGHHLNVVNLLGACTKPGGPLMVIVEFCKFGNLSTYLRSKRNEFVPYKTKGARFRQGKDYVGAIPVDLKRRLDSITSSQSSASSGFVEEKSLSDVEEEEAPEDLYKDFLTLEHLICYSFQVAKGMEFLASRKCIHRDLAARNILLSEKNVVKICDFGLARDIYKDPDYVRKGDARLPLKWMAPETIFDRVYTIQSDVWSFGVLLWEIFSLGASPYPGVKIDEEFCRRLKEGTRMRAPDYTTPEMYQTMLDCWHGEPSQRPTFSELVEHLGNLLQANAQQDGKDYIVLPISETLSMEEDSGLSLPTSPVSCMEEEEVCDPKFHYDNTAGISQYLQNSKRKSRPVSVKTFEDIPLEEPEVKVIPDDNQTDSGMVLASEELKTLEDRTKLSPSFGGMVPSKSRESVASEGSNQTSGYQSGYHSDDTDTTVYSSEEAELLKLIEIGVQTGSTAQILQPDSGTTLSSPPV

[7] = target: human KDR (VEGFR2) on cells (human) (UniProt P35968); assay: FACS on HUVEC, control at 2 ug/mL
human KDR (VEGFR2) on cells (human), sequence (P35968 20-1356): as above

soluble KDR Ig4-7 domain (human), sequence (P35968 328-764): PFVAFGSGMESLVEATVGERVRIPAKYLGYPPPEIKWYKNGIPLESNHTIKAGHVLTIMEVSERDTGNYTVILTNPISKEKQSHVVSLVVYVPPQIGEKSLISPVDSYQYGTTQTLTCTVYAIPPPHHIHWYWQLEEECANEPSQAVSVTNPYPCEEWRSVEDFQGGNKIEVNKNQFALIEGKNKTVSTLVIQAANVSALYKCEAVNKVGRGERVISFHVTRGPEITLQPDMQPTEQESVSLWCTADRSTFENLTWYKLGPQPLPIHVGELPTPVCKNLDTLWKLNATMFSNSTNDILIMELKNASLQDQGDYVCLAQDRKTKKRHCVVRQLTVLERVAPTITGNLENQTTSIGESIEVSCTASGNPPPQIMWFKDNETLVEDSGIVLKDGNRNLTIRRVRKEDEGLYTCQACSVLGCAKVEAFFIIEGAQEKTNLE
whole KDR-ECD (Cat. # 676490, Calbiochem) (human), sequence (P35968 20-764): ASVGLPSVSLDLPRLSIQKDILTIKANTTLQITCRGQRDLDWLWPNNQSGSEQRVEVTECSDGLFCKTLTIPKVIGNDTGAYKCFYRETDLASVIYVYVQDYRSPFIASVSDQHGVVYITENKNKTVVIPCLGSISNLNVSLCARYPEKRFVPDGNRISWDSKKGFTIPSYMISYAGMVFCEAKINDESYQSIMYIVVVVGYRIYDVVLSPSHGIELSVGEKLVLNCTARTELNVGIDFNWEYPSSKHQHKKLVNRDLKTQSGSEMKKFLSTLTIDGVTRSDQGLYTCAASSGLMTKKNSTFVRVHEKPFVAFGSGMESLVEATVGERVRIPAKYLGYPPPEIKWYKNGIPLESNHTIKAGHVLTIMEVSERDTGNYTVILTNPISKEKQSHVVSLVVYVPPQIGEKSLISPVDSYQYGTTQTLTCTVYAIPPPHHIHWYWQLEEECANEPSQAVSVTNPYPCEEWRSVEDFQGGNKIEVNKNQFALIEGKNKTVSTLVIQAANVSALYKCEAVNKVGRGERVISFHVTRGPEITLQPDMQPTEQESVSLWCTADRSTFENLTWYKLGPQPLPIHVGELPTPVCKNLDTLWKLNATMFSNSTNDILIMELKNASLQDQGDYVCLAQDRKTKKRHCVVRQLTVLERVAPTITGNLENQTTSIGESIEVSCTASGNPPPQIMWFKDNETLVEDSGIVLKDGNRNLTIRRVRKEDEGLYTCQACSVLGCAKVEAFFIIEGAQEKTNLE

Row | Substance | ELISA reading [1] | ELISA reading [2] | ELISA reading [3] | ELISA reading [4] | ELISA reading [5] | ELISA reading [6] | % of Max VEGF KDR pTyr Activity (at 133 nM antibody concentration), Average (KDR (human)) [%] | % of Max VEGF KDR pTyr Activity (at 133 nM antibody concentration), N = 1 (KDR (human)) [%] | % of Max VEGF KDR pTyr Activity (at 133 nM antibody concentration), N = 2 (KDR (human)) [%] | FACS Geometric Mean [7]
1 | IgG2 (antibody) | – | – | – | – | – | – | 9 | 6 | 12 | –
2 | goat isotype control (antibody) | – | – | – | – | – | – | – | – | – | 3.28

Other lines, results leading:

Row | ELISA reading [1] | ELISA reading [2] | ELISA reading [3] | ELISA reading [4] | ELISA reading [5] | ELISA reading [6] | % of Max VEGF KDR pTyr Activity (at 133 nM antibody concentration), Average (KDR (human)) [%] | % of Max VEGF KDR pTyr Activity (at 133 nM antibody concentration), N = 1 (KDR (human)) [%] | % of Max VEGF KDR pTyr Activity (at 133 nM antibody concentration), N = 2 (KDR (human)) [%] | FACS Geometric Mean [7] | Substance
3 | 0.097 | 0.082 | 0.087 | 0.079 | 0.121 | 0.139 | – | – | – | – | IgG1 (Control) (Sigma-Aldrich, Cat. #15154) (antibody)
4 | 0.078 | 0.077 | 0.078 | 0.075 | 0.106 | 0.181 | – | – | – | – | IgG4 (Control) (Sigma-Aldrich, Cat. #14639) (antibody)
5 | – | – | – | – | – | – | 8 | 6 | 10 | – | IgG4 (antibody)
